# From the supplement of paper PMC10567573
# ± gives the standard deviation.
# Experiment: protein stability index of a GFP-peptide fusion (GPS, HEK-293T) (PSI 1-6); higher = more stable
# [1] = treatment: DMSO, c terminus: a fixed tail appended
# [2] = treatment: MLN4924 1 uM, 8 h, c terminus: a fixed tail appended
# 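Note: 24-mer peptide tiles fused after GFP, lentivirally expressed, FACS-sorted into six equal bins by GFP/DsRed ratio, decoded by Illumina sequencing, PSI is the read-weighted mean bin number.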
Sequence,protein stability index [1],protein stability index [2],"protein stability index (treatment: DMSO, c terminus: native)","protein stability index (treatment: MLN4924 1 uM, 8 h, c terminus: native)"
SAVARSNSWMGSQGPMSQRRENYG [RBMY1A1],3.68 ± 0.43,3.96 ± 0.5,,
SKSNLGWTPLHLACYFGHRQVVQD [OSBPL1A],2.62 ± 0.6,2.12 ± 0.55,,
MKDISNLEENDETRFILSKVPSEA [SLC6A17],4.91 ± 0.24,4.94 ± 0.15,,
TIFEKENFIGRQWEISDDYPSLQA [CRYBA1],3.26 ± 0.29,3 ± 0.32,,
HLARHAVACFLTRGDLWISWEEGM [CRY1],3.01 ± 0.72,2.98 ± 0.47,,
QRITQEQEKKLSFIEALIQQYQEQ [TRIM63],2.68 ± 0.36,3.02 ± 0.52,,
LDLSKPNDLWPTMENLLQATKSHV [DYNC2LI1],3.06 ± 0.28,3 ± 0.19,,
VLVNVLQAIYVIDFFWNETWYLKT [DHCR7],3.09 ± 0.25,3.22 ± 0.27,,
QAAKQIKDGVTMAPAFRLSLKAKV [FSD1],3 ± 0.23,3.02 ± 0.33,,
FACPSQALFFKNIMNIIDIVSILP [KCNA4],3.02 ± 0.073,2.85 ± 0.27,,
VIWDFLTRGIAKIISAHIHPVCSL [RBBP5],3.31 ± 0.46,3.3 ± 0.35,,
ASFDVCESVDEAGGSGPAGLRAST [RHOBTB2],5.24 ± 0.21,5.02 ± 0.15,,
EEAEELAKEMSVPFYTSRIDEVLL [GFOD1],3.83 ± 0.24,4.11 ± 0.33,,
YFFKRPYPFVLFYSKFHGLEMCVD [KMT2E],2.75 ± 1,3.19 ± 0.55,,
NESRYMIYEFWENSSVWNSHLQTN [NECAB1],2.26 ± 0.26,2.24 ± 0.23,,
DDKHYGGFTNKQLQSGQEYVFFVL [PTPRD],2.64 ± 0.53,2.55 ± 0.43,,
GHGNKVLCMDWCKDKRRIVSSSQD [GNB5],3.64 ± 0.28,3.85 ± 0.45,,
DYVHISSKPCDLHCTTVDGQRQLM [ADAMTSL2],3.45 ± 0.29,3.44 ± 0.23,,
QQLDLRWNNVGLLGGRALMNCLPS [LRRC45],2.65 ± 0.2,2.48 ± 0.2,,
KSWLNGFRPKDQTSVGMSFVAGGI [SLC25A39],2.2 ± 0.18,2.43 ± 0.24,,
PFPLGASAQNGLASSLPAEVHSLT [PLAGL1],3.94 ± 0.089,4.09 ± 0.16,,
SQEEGKSALEDQGSNPSSSNSSQD [PPFIA4],5.67 ± 0.16,5.62 ± 0.28,,
ALWKHLKSMHREELEKSGHGQAGQ [ZBED2],2.98 ± 0.38,3.48 ± 0.43,,

Sequence,protein stability index [1],protein stability index [2],"protein stability index (treatment: DMSO, c terminus: native)","protein stability index (treatment: MLN4924 1 uM, 8 h, c terminus: native)"
WPARVLDISLGQKEDGEPSWREAK [PWWP2B],4.18 ± 0.12,4.27 ± 0.11,,
GLAFFTFPNIASATKFKQLYRSRM [HMOX1],2.39 ± 0.78,1.98 ± 0.34,,
VPVDTGVAARTPAVEGLTEAEEEE [TPD52L2],5.51 ± 0.15,5.4 ± 0.13,,
AKVLTLSDDLERTIEERVNILFDF [EIF5],2.33 ± 0.36,2.4 ± 0.21,,
AIEGIPGSDYVNANYIDGYRKQNA [PTPRD],4.09 ± 0.24,4.6 ± 0.12,,
PAIADLFAESLQCKVDCEANLTPN [P3H4],3.93 ± 0.38,4.05 ± 0.55,,
EEANADLEVKIHDWYQKQTPTSPE [KRT15],5.33 ± 0.23,5.29 ± 0.16,,
MEAAREGHEEMVALLLGQGANINA [ANKRD17],4.16 ± 0.17,4.15 ± 0.24,,
RQLMKVVNEMCPNITRIYNIGKSH [CPXM2],2.26 ± 0.12,2.71 ± 0.56,,
ILELYNIDSHLLLSVLPQLEFKLK [PDS5B],2.64 ± 0.53,2.45 ± 0.78,,
SLIPPRSEQLVNFTGKAEMGGPFS [TMEM106C],3.65 ± 0.34,3.47 ± 0.3,,
FLVFVIVLFFIYHFMQAEEGNPF [EMD],,,2.94 ± 0.44,2.83 ± 0.17
ISSTTCGRQLEKVPEKRDSGMTEV [SPATS1],4.27 ± 0.24,4.38 ± 0.35,,
ESSPSHDRSRTVSASSTGDLPKAK [SRPK2],5.16 ± 0.33,5.22 ± 0.16,,
RTPEILKKALSGLSSRWKNWWIRG [CDS1],2.49 ± 0.86,2.26 ± 0.73,,
MDHIRIFQEQVEKLKALHVDSAEY [NR2F2],3.07 ± 0.44,3.2 ± 0.36,,
LPFVLAAAVSRKKKRRMGTYSLVP [EHMT1],2.34 ± 0.26,2.27 ± 0.24,,
LQTVTREKEELLQLSIERGKVLQN [CCDC89],4.13 ± 0.25,4.42 ± 0.26,,
VKGSRVTVMEKCSDGWWRGSYNGQ [NCK2],2.13 ± 0.47,2.29 ± 0.34,,
HCPESGEEAVILLEDLERELDEPQ [ZSCAN9],5.55 ± 0.24,5.46 ± 0.44,,
RGAQGVILVYDIANRWSFDGIDRW [RAB40B],2.29 ± 0.65,2.19 ± 0.15,,
FWDLFRSKDNMRTRIMIGLTLVFF [SLC2A12],2.53 ± 0.55,2.67 ± 0.39,,
NVSGLRFETQMKTLAQFPETLLGD [KCNA4],3.53 ± 0.48,3.86 ± 0.1,,

Sequence,protein stability index [1],protein stability index [2],"protein stability index (treatment: DMSO, c terminus: native)","protein stability index (treatment: MLN4924 1 uM, 8 h, c terminus: native)"
KYAVPALEAHCVEFLTKHLRADNA [BTBD1],2.54 ± 0.25,2.74 ± 0.17,,
FFLRGRLDQLLRHVMNPLETLSIT [PRAME],,2.1 ± 0.52,,
WIIKKHNTNSDPLDPSFPVEFVRH [POMT2],2.54 ± 0.29,2.39 ± 0.51,,
RPARSTLDELLGRGMATKLLARPG [FBF1],2.61 ± 0.19,2.63 ± 0.17,,
RTIVKGYNENVYTEDGKLDIWSKS [MED27],3.84 ± 0.35,3.91 ± 0.3,,
LIPKTWYSAEQFCVSRNSHLTSVT [CD207],2.17 ± 0.32,2.19 ± 0.28,,
HYICPRLGGIGFSSCIVCLFVGLY [SLC6A17],2.39 ± 0.54,2.3 ± 0.21,,
GPTSSNPRKRHREDSDVEMVEDDS [MLH1],5.32 ± 0.13,5.22 ± 0.6,,
VQIYNLSQNIQEDDLQQLQLFTEY [ATL3],2.44 ± 0.35,2.28 ± 0.27,,
SEDLDGHSDPEESFARDLPDFPSI [RETREG3],5.33 ± 0.2,5.13 ± 0.45,,
KLGNLMSLDISGHMILENCSISKM [ZER1],2.1 ± 0.24,2.24 ± 0.24,,
GFVFGTTLIMLLSLAAFSVISVVS [RTN3],3.2 ± 0.33,2.61 ± 0.58,,
TEPPQNPVTPLGLQNEVPPQPDPV [SERTAD3],5.32 ± 0.26,5.48 ± 0.24,,
AGSPIRHENAVQGSAVEVQTYQPP [ISL2],4.91 ± 0.14,5.04 ± 0.19,,
TLQDLVFDECGITDDQLLALLPSL [PRAME],2.84 ± 0.26,3.03 ± 0.34,,
REAVPALLGEPLAGPELDEMLREV [CABP4],5.13 ± 0.22,5.12 ± 0.31,,
MVSSVLCRCVASPPPDAAATAASS [SLC25A25],2.94 ± 0.24,2.92 ± 0.22,,
NALTLFNLAQDPQCKEWQVLMCGF [TMEM120A],2.26 ± 0.38,2.06 ± 0.16,,
PVCADLQAKILQCYRENTHQTLKC [CHCHD3],3.02 ± 0.23,3 ± 0.25,,
RRRGPRNKKRGWRRLAQEPLGLEV [NOP53],3.65 ± 0.18,3.73 ± 0.4,,
AGFQDIPKRCLKAREHFGTVKTHL [TSN],2.81 ± 0.44,2.78 ± 0.24,,
QPVQSKPQKASAPAADPPRYTFAP [PDLIM7],4.37 ± 0.27,4.44 ± 0.3,,
FMPQGAGGHTREARIQTLEPDNWM [RSAD1],3.27 ± 0.33,3.11 ± 0.29,,

Sequence,protein stability index [1],protein stability index [2],"protein stability index (treatment: DMSO, c terminus: native)","protein stability index (treatment: MLN4924 1 uM, 8 h, c terminus: native)"
EEQRVEQQTKLEAEKLKVQALKDR [LSM1],5.55 ± 0.28,5.36 ± 0.12,,
NDLQDLREQILRVKDTDDVPMILV [RAP1B],2.82 ± 0.3,3.06 ± 0.21,,
QDFLLFSPEVESLPVASSSTLLPL [NFE2L1],3.34 ± 0.79,3.37 ± 0.57,,
ELCVKLMFLHPVDYGRKAEELLWR [SMG5],2.41 ± 0.7,2.33 ± 0.89,,
RECGLAAPRFSFNDPSGSEEADFL [IRX6],4.53 ± 0.21,4.34 ± 0.33,,
RKCPVHGKTMELFCQTDQTCICYL [TRIM29],2.94 ± 0.61,3.72 ± 0.59,,
PMTPEDPSFWDCFCFTEEIPIRNG [AASDHPPT],3.56 ± 0.093,3.67 ± 0.2,,
ILTIMATLKIRNSNFYTVAVTSLS [TMEM106C],3.3 ± 0.36,3.16 ± 0.38,,
DERRDAEERASLAGNRNSMVIHIP [KCNK9],4.24 ± 0.08,4.51 ± 0.086,,
VVHDWLYSYVYQDGLRLLGARARG [SOAT2],2.46 ± 0.44,2.28 ± 0.25,,
ALLDLHFPSDHLGDLGDPFHLGLE [TFE3],2.37 ± 0.36,2.32 ± 0.28,,
NPPRAEFNYSVGFKDLNESLNALE [APBB1IP],3.48 ± 0.26,3.65 ± 0.21,,
HSTSLKVPLARSLQISEELLSRNQ [LCOR],4 ± 0.24,3.97 ± 0.099,,
HCGVLEFVADEGICYLPHWMMQNL [UFD1],2.57 ± 0.59,2.13 ± 0.39,,
QSWNNQAWNSPFYNCGEESLQSCM [NANOGP8],2.51 ± 0.18,2.48 ± 0.33,,
DSSEEESHRVVLRPRGKERHKSGV [LYSMD4],5.21 ± 0.28,5.14 ± 0.11,,
GHGTRKRVPLGRLELLEEVLALGL [RSAD1],2.15 ± 0.21,2.3 ± 0.51,,
VFLASKVEEFGVVSNTRLIAAATS [CCNC],2.46 ± 0.68,2.24 ± 0.35,,
IKNLYAFNLFCQKRFDESMQVFAK [VPS39],2.19 ± 0.29,1.96 ± 0.21,,
NLTSNEGHSLKNLEHRLNEMERTQ [RASAL3],4.28 ± 0.32,4.26 ± 0.25,,
